Measurements: doi:10.1101/2025.08.13.670108v1

Columns and labels:
O=C(O)/C=C/c1c[nH]cn1 = assay: purified protein; details: pH 8.0; 25.0 °C
[1] = tested on: C[N+](C)(C)[C@@H](Cc1cnc[nH]1)C(=O)[O-]; assay: purified protein; type: biochemical, Shewanella woodyi; details: pH 8.5

Substance | Km (O=C(O)/C=C/c1c[nH]cn1) | Km [1]
Swoo_3912 (Shewanella woodyi ATCC 51908) | 0.7 ± 0.1 µM | –
Swoo_3913 (Shewanella woodyi ATCC 51908) | – | 103 ± 8 µM
